This data set can be described thus: label from the status in PepcDB records.
On to “MADKTGTPHPLTEPGVWIERIGGRVFPPHLPALFLDRDGTINVDTDYPSDPAEIVLRPQMLPAIATANRAGIPVVVVTNQSGIARGYFGWSAFAAVNGRVLELLREEGVFVDMVLACAYHEAGVGPLAIPDHPMRKPNPGMLVEAGKRLALDLQRSLIVGDKLADMQAGKRAGLAQGWLVDGEAAVQPGFAIRPLRDSSELGDLLAAIETLGRDNRS”, for which the protein production entry is “not failed”.

Consider “AIREREMKVLNIQVTSSCNYACGMCPFHGDGYSGEYFDERPTIRRDMSLDEIKLILEKASMEGFEWIDLTPNGEFFTHKQWYQILSLIKEFGLKIMITSNGGLLGEEDIKRACEVGVDHIVISVDSLSYESYKKIRKPATKLAFERAIHAPLYFKKYG”, for which the protein production entry is listed as “failed”.

As to “MVYLMLCLKIWRVVLKKNKTLVFISLFLLSVFLGGFYFYFDPNILYLLKGEKDFSKLIMGIDFYIDKKKFADAKKAMLFSSYYANTEFKWLALAKRAKLWALNTGDYHLMGEIVNLGVKVLPGNLKLRALEVYSKLKIGLLKDAYRIANEYLLNSEEYQGLYDEVFIKNLSSDNGILDFNKFIDKIYKEKDARIFEEIGLNLKNNAFLINAMLLYIEKKNIDSAKRILFRIKEDKSFLKELAYISYNLNDLDYTISNLKSIKNEEDPTLLFLLADAYFKKGDIKNAKNEYLKLYTRFPDYNVLVYLNLALIANSENDYKRAISYLNKANEVFKDNKIINYYLANIYFGIKNYFKANEIIANYKEDPLFFKLYFALNYANSKYEAKKSYLWRLFYKTEYNSSIAQFLAWNLLLYSDLKDLDLFFRIYNFSENKQDWYDFYKFYYYFLKRDFISSKKIIFDNKSQKYMFGIYYNLGVLSFSEKDYEEAERYFNKGISLLPSSFYDKDSTTPYERELVSKIYLKQGINYLYLGKMEKGKESILASYSFYETDEGRLYKNMIDTLRERNLNFD”, the protein production result is on record as “failed”.

Regarding “MFWDNLTVAAKFFIEISVELTILFIGITFLVGLSQEYVPDETIKRALGGRNKVIGSILGAGFGAITPFCSCSTIPLLLGMLKAGAPFAAAMAFLFSSPLLNPVIISLFVILLGWKVTALYFVVVFMSTIAIGLLLDWLGFSNQIKPVAVVRNRCDCEQDTNAKSRIQRSAVFAFSLFRQLMPYLLLGAGIGAFIHGFVPTEVITRVAGPSNPLAVPVAAIIGVPIYIRAETMIPIGLALIKKGMSVGAVLALIIGGAGASIPELTLLSSIFKKRLLTAFVITVFSIAVIAGYLANLLTL”, the protein production result is “failed”.

As for “MDTTAVLLKGPKDLDVDTLQLHVPGDGDLVVEIEHSGISTGTEKLFWSGEMPPFPGMGYPLVPGYEAVGEVVEADRATGFKVGERVFVPGANCYDGAFGLFGGAASRVVTASDRVTRIDAGHGASGALLALAATARHSMAGLNKSVPDLIVGHGVLGRLLARLTIAAGAPAPMVWEIDESRRKGAQGYEVIAPEDDPRRDYTSVYDASGSVEVLNDLVGRLAKGGEIVLAGFYTTAISFAFPPAFMKEARFRVAAEWTHDDLAATRALVEGGSLSLENLITHQASHLNARAAYAQAFTDPDCLKMILNWKDVA”, the protein production result was “failed”.

For the sequence “YLYFNSDSFILLIAPTRSGKGVGVVIPNLLVYNQSMVILDLKQENFSITSKYRAKYGQQVFLFNPFTENGQTHRYNPLSYVREGDCKIGDILTITASFYPIDDLKNSFWNNQASNLFLGLALMISETPSLPFTIGELLRQSSGKGKPLKEYLQGIMDDREKSSSPLSESCIDALNRFIALTDNSLSNVLASFNAPLTLWANPLFDAATSANDFDLRELRKKKMTVYIGITPDYLEQAERILNLFFSQLININTKELPEHNPELKYQCLLVMDEFTAMGRIGILAKSVSYMAGYGLRLLTIIQAPSQLDSVYGKEEARTYKTNHAGQILFAPRENEDAEEYSKAIGYKTVKAKSNSKTRGELKQTDSTSDQRRAVMLPQEIKEIGMWKEIICIENLKPIFCKKVQYFNDPVFIDRLKEVSS”, the protein production result is reported as “failed”.

“MNWKRLVQFYSVPPSQAALALGMIGLGQAWALYVPDIGTPIRPFLASFGALLLAPVLIKYATNPRLFMADIKHPLSGSLMAPMSMALLILTDYLASVAPLIAYPLWCLAVLLHFTMMVLFFGFQLMNFKMSNIVPSWFLYPVGLISSSLAGSQFGHNLFSETLAIMCIGIYFFMLPLVLYRLVFFGSLPRRARPTLAIMAAPVNLSLAAYLVNFPQPDPILTGALAGIAITMTLLIYLCYFRLLRLKFQPSIAAVTFPSVISAIAMHRLTSFFAQSHPQWHWLHDFGFLELSIATVLVVWVSAGYVKMYWPEIVRTPTKQA”: the protein production result was “failed”.

With “MFLTLSGADMSALIKGSGPHHVVVLNGWFGHAAGWGAFADYLDLGNYTWHFWDYRGYGNRKDDAGEFTLEEISADIVAYIDSIEAEKVSILGHSMGGVFMQKVLADSATPIASLVGISAVAAAGTPFDEDSRKLFTSAGHNPDSRRAIIDFTSGSRQPAAWLDDLTDSTVQNSTPEAVEKYFFAWADCNFAADLGTQDLPVYILTGDLDPAVTKTAVESAFGPIYQNLTVEELHDVGHYAIFEHPLGLAARVLRFLDAV”, the protein production entry is “failed”.

“MAKHAILVIDMLNDFVGEKAPLRCPGGETIIPDLQKIFEWVRGREGDDIHLVHIQEAHRKNDADFRVRPLHAVKGTWGSDFIPELYPQEDEYIVQKRRHSGFAHTDLDLYLKEEGIDTVVLTGVWTNVCVRSTATDALANAYKVITLSDGTASKTEEMHEYGLNDLSIFTKVMTVDQYIQAWENDEDPWVGGGDAQNKVK”: the protein production result is given as “not failed”.

“KGSQVKLEVISDEKGAKPRTITLTREQIRLEDRAVKLTEKVINGDKIAILDIPSFYVGLTNDVKTQLQKVAKDNVSALVIDLRGNGGGALTEAIALSGLFIPSGPVVQVRDNNGRVRQDYDRDDVVYYKGPLVVIVNRFSASASEIFAAAMQDYGRALIVGEQTFGKGTVQQYRSLTRVYDQMLSPDWPSLGSVQYTIQKFYRINGGSTQLKGVTPDLLLPSFDNSEMGESNEDNALPW”: the protein production entry is listed as “failed”.

“MNILNNKNKRTSIFKALALCLFAAVSFTFVSCDDDMDIQQSYPFTVETMPVPNKVTKGQTVEIRCELKKTGDFANTLYTIRYFQFEGEGTLKMDNGITFLPNDRYLLENEKFRLYYTAQGDEAHNFIVVVEDNFGNSYELEFDFNNRNVKDDGVITVVPIGNFKPLTR”: the protein production result was “failed”.

On to “SLRKERARSAEEPWTQNQQKLLELALQQYPRGSSDCWDKIARCVPSKSKEDCIARYKLLV”, for which the protein production entry is “not failed”.

For “MPHLRFRAVEAHIVESLVPTLLNELSSLLSTARNAFTFELINTQYFAEGGVYPMVEVLWFGREQQTQDQIAQVITDQIRQLLGADSHLAVVFIPLQRTAYYLDGQHF”, the protein production result is listed as “not failed”.

Consider “MVDSYDDSLDGEKSKTQVKRELHALVDLGERLTTLKADVLAKLPLTDALRKALAEAPKHTANIARKRHILFIGKLMRDQDQEAILVLLDQLDASTRQYNERFHNLERWRDRLIAGDDADLEKFVIEYPDADRQQLRSLIRQAQHEVARNKPPATSRKIFKYIRELDELQ”, for which the protein production result was “not failed”.

Turning to “MTESDRDQEASMREVVIVKSTPQRGKFNAFAELVGKLVSETRDFPGCLGAYLMLAPERNEQVVMHIWETPDALEAYLTWRADRGDFLEINEYLEVEQDFKTYQLA”, the protein production entry is on record as “not failed”.

As to “MSTDRETVRSYDAVAAEYAAEAAVMPEWVATEIDVFVTELSGSGRVLEIGSGGGRDALELEKRGMSVRRTDISKGFVELLRESGFEADLLDPLTDDLADPQRPSMPYDGIWACACLIHVARGDFGTVLGRLAEATRSGGRLHVSVREGDGEDLSTHGSAAAPRRYVETYWREPALRSALTDAGWIVNDVRRYVGRPHDRWLSVRASRA”, the protein production result was “failed”.

With “FDASTLYVPEDFLNSCTPGMRKWWQIKSQNFDLVICYKVGKFYELYHMDALIGVSELGLVFMKGNWAHSGFPEIAFGRYSDSLVQKGYKVARVEQTETPEMMEARCRKMAHISKYDRVVRREICRIITKGTQTYSVLEGDPSENYSKYLLSLKEKEEDSSGHTRAYGVCFVDTSLGKFFIGQFSDDRHCSRFRTLVAHYPPVQVLFEKGNLSKETKTILKSSLSCSLQEGLIPGSQFWDASKTLRTLLEEEYFREKLSDGIGVMLPQVLKGMTSESDSIGLTPGEKSELALSALGGCVFYLKKCLIDQELLSMANFEEYIPLDSDTVSTTRSGAIFTKAYQRMVLDAVTLNNLEIFLNGTNGSTEGTLLERVDTCHTPFGKRLLKQWLCAPLCNHYAINDRLDAIEDLMVVPDKISEVV”, the protein production result is recorded as “failed”.

For the sequence “MADSKGTASPAKPLQPPSAATPIIERVIKQMESEDGWVSLGEVGKHLSNLASDFDPRTFGFRKLSDLVRKTNAFELEQQNGHLEHHHHHH”, the protein production result was “failed”.

On to “MQKKTQKLTVYVIVGLLIISLVGTSFMFLGDMRPTVGKNYQDQINSLKQALEANPQDTQTRLALADTYYDWGMQTLSQDMAEENLATTTSILQQAVTEYQEVLKTEKNVNILVDMATAAFYTSQNELADQTFQEALQEDPNFYNGLYNYGVFLYSQGDYGKAIEQWEKALALENISTDDKERLERNIKLAQDGIVQQFQQPENGDSSDANAEAK”, for which the protein production entry is listed as “failed”.

For “MVLAVLFPTYPAYEFAGYALPGVSTTLGVFSLTVLTNTVLFALAYPLVLGARNALTGNVSVVMFVGRRVAADDLATVHGSLLESSAGGFTRSGLDLDALRMYLRWRDCTLADLRSDPGLRHPDTLPDTPGDPTDGAVATDGSGDPWGAAAFLADIDHSAYGTTPAQLRDGLDLITDHDDVWVTPGVPFLLPLFAGLVVALTFGDVLFYVLDALGFAAA”, the protein production entry is “failed”.

Turning to “AIATVYRLPASISFDEVIQRVSRENVGAVVRCAVGEEQLVVATSHRQEAWTVLKSFLINRCVPMEAREEEPSLGLEKPQYWDRLPANGRTPMERSDHGRGLEFQKSSQDDPVFEKECLLSGYGAQAPSQTGTESLQIPQVALLEEPVPPAYLKKAENAAVSFCGLVRKDRLSSDRVVSALVYESYREMAMLYIHRIAAEQNLHMFVHTVAGSVPVGSVSVLVTGPSVESVRLALEALKRYVPIWKEDVSVPCI”, the protein production result is “failed”.

As to “MTSLPQISTLMREKSVENKLKVKAKDDHMVPSGLYEVRAIQLPGGSWRHYYVDHSSKETYWILPYSHPDGASSHPLEKLPVYLPSYEECVDETNPLAVPEVCSPARD”, the protein production result was “not failed”.

For the sequence “MEVQETRVQTDRVLTIPNILSMARLVGVPVFLWLILRPEFGGPKSDGWALLVLALSGISDYLDGKLARRWNQISSLGRLLDPAADRLYILSTLVGLTWREILPIWLTAALLARELVLLVMVGILRRHGYPPPQVNFLGKAATFNLMYAFPLLLLSDSSGWIGSLAAIFGWAFAGWGTTLYWWAGVLYMVQVRRLVRADAVAD”, the protein production result is recorded as “failed”.

Regarding “SAASQAGSNYPRCWNCGGPWGPGREDRFFCPQCRALQAPDPTRDYFSLMDCNRSFRVDTAKLQHRYQQLQRLVHPDFFSQRSQTEKDFSEKHSTLVNDAYKTLLAPLSRGLYLLKLHGIEIPERTDYEMDRQFLIEIMEINEKLAEAESEAAMKEIESIVKAKQKEFTDNVSSAFEQDDFEEAKEILTKMRYFSNIEEKIKLKKIPL”, the protein production entry is reported as “not failed”.

As to “MTQANLSETLFKPRFKHPETSTLVRRFSHGAQPPVQSALDGKTIPHWYRMINRLMWIWRGIDPREILDVQARIVMSDAERTDDDLYDTVIGYRGGNWIYEWATQAMVWQQKACAEEDPQLSGRHWLHAATLYNIAAYPHLKGDDLAEQAQALSNRAYEEAAQRLPGTMRQMEFTVPGGAPITGFLHMPKGDGPFPTVLMCGGLDAMQTDYYSLYERYFAPRGIAMLTIDMPSVGFSSKWKLTQDSSLLHQHVLKALPNVPWVDHTRVAAFGFRFGANVAVRLAYLESPRLKVVACLGPVVHTLLSDFKCQQQVPEMYLDVLASRLGMHDASDEALRVELNRYSLKVQGLLGRRCPTPMLSGYWKNDPFSPEEDSRLITSSSADGKLLEIPFNPVYRNFDKGLQEITDWIEKRLC”, the protein production entry was “failed”.

Values taken from a protein production outcome set (Wang et al. 2014).
